Experimental findings from patent publication US20030070184A1, “LIGANDS FOR DISCOIDIN DOMAIN RECEPTOR TYROSINE KINASES AND COMPLEXES THEREOF” (priority 1999, published 2003) are described below.

The assay concerns DDR receptors. The assay can be described thus: Effect of other agents on DDR activity / collagen-induced DDR tyrosine phosphorylation. The assay is classed as cell-based. The following applies: collagen-associated molecules.

B1: decorin: collagen-associated molecule (protein, UniProt P07585 31-359, looked up)
Decorin: DEASGIGPEVPDDRDFEPSLGPVCPFRCQCHLRVVQCSDLGLDKVPKDLPPDTTLLDLQNNKITEIKDGDFKNLKNLHALILVNNKISKVSPGAFTPLVKLERLYLSKNQLKELPEKMPKTLQELRAHENEITKVRKVTFNGLNQMIVIELGTNPLKSSGIENGAFQGMKKLSYIRIADTNITSIPQGLPPSLTELHLDGNKISRVDAASLKGLNNLAKLGLSFNSISAVDNGSLANTPHLRELHLDNNKLTRVPGGLAEHKYIQVVYLHNNNISVVGSSDFCPPGHNTKKASYSGVSLFSNPVQYWEIQPSTFRCVYVRSAIQLGNYK
B1: the “effect on DDR activity” value is given as “no effect”.
